According to US6261569:

Target: riMod, retro-inverso model peptide
Assay: ELISA, immobilised riMod-BSA

With “non-immune mouse serum (polyclonal serum or antibody)” the titre (reciprocal of highest serum dilution) was 80.
